Laboratory results reported in IntAct's records for PubMed 31515488.
Values belong to the substance of their own block, whether it stands above or below them.

Assays:
fxl18_human FBXL18 = fxl18_human FBXL18 (UniProt Q96ME1)
vatl_human ATP6V0C = vatl_human ATP6V0C (UniProt P27449)
sc22a_human SEC22A = sc22a_human SEC22A (UniProt Q96IW7)
ppla_human PLN = ppla_human PLN (UniProt P26678)
mal_human MAL = mal_human MAL (UniProt P21145)
emp3_human EMP3 = emp3_human EMP3 (UniProt P54852)
txnd5_human TXNDC5 = txnd5_human TXNDC5 (UniProt Q8NBS9)
Chain of txnd5_human TXNDC5 (Q8NBS9 whole entry): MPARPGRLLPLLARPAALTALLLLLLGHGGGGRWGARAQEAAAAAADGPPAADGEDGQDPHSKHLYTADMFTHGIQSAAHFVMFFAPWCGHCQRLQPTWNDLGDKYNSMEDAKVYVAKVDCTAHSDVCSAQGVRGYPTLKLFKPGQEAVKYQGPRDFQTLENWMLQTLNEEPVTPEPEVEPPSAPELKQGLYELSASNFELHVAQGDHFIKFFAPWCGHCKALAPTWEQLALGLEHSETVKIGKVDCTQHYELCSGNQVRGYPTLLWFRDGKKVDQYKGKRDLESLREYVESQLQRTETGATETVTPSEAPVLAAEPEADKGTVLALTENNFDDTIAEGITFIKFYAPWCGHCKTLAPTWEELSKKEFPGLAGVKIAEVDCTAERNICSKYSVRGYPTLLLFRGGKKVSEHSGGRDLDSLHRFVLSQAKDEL

hem1_human ALAS1 = hem1_human ALAS1 (UniProt P13196)
fsd2_human FSD2 = biological target: T1, fsd2_human FSD2 (UniProt A1L4K1)
T1 sequence: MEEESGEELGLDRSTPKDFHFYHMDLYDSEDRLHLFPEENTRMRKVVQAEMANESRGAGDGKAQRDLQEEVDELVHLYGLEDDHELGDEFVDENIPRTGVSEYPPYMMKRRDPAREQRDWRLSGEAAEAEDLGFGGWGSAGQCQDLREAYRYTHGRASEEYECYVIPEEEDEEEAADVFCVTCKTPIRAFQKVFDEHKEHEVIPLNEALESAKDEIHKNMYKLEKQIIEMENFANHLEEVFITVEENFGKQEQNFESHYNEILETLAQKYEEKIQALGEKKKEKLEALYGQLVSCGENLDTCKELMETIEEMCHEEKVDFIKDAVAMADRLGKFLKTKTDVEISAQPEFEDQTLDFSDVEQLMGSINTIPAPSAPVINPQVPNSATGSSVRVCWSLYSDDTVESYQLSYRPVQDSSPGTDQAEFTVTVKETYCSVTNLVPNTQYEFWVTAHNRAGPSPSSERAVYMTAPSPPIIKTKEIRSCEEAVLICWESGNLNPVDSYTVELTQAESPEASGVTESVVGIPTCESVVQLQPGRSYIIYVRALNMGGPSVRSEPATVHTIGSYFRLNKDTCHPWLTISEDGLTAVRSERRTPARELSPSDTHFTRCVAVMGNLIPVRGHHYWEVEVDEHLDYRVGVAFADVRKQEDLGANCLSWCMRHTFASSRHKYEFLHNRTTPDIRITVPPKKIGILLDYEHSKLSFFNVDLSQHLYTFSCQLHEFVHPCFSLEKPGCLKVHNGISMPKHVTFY

goga2_human GOLGA2 = biological target: T2, goga2_human GOLGA2 (UniProt Q08379)
T2 sequence: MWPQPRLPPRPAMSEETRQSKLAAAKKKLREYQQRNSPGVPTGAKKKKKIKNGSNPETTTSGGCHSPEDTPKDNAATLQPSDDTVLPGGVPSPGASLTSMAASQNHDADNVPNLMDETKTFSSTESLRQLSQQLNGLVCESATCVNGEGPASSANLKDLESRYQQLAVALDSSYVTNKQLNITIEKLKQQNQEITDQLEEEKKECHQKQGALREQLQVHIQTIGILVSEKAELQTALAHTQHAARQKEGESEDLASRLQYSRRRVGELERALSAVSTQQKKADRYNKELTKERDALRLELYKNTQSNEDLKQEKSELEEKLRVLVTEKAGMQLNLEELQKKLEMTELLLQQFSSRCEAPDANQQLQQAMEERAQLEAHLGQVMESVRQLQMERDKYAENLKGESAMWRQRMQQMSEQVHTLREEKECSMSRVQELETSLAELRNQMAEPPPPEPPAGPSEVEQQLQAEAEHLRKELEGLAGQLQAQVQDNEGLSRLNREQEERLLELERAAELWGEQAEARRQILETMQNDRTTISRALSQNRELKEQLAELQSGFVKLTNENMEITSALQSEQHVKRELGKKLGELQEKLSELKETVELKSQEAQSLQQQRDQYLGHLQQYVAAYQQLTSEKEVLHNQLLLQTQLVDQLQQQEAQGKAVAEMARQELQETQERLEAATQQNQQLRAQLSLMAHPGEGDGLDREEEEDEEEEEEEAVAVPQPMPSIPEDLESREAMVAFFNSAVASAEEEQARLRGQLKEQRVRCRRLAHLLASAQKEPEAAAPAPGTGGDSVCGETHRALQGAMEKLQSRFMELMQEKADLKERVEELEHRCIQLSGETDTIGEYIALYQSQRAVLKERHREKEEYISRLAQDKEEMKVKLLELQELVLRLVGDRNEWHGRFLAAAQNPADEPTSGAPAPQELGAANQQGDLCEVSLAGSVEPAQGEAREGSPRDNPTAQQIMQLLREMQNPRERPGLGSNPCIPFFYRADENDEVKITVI

cep63_human CEP63 = cep63_human CEP63 (UniProt Q96MT8)
Chain of cep63_human CEP63 (Q96MT8 whole entry): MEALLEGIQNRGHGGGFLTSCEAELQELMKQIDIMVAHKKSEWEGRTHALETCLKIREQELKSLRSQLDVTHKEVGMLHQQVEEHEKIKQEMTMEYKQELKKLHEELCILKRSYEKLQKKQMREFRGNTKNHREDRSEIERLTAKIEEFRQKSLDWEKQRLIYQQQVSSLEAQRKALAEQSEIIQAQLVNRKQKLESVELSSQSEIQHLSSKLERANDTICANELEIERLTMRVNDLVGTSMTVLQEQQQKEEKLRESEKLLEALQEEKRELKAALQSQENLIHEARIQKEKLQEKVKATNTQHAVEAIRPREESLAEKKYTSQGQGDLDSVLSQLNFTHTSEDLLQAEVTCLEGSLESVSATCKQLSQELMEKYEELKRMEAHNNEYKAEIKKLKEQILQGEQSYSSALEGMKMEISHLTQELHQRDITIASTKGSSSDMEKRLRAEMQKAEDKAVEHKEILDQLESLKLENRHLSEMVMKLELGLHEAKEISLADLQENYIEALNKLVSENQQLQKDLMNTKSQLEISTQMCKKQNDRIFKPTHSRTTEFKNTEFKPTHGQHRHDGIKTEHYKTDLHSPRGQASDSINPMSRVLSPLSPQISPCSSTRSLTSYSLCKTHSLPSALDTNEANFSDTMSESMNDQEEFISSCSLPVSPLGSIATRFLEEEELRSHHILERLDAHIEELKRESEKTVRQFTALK

TSC22D4 = TSC22D4 (UniProt Q9Y3Q8)
mtus2_human MTUS2 = mtus2_human MTUS2 (UniProt Q5JR59)
erep1_human ENTREP1 = erep1_human ENTREP1 (UniProt Q15884)
pdli7_human PDLIM7 = pdli7_human PDLIM7 (UniProt Q9NR12)
hnrl1_human HNRNPUL1 = hnrl1_human HNRNPUL1 (UniProt Q9BUJ2)
mycd_human MYOCD = biological target: T3, mycd_human MYOCD (UniProt Q8IZQ8)
T3 sequence: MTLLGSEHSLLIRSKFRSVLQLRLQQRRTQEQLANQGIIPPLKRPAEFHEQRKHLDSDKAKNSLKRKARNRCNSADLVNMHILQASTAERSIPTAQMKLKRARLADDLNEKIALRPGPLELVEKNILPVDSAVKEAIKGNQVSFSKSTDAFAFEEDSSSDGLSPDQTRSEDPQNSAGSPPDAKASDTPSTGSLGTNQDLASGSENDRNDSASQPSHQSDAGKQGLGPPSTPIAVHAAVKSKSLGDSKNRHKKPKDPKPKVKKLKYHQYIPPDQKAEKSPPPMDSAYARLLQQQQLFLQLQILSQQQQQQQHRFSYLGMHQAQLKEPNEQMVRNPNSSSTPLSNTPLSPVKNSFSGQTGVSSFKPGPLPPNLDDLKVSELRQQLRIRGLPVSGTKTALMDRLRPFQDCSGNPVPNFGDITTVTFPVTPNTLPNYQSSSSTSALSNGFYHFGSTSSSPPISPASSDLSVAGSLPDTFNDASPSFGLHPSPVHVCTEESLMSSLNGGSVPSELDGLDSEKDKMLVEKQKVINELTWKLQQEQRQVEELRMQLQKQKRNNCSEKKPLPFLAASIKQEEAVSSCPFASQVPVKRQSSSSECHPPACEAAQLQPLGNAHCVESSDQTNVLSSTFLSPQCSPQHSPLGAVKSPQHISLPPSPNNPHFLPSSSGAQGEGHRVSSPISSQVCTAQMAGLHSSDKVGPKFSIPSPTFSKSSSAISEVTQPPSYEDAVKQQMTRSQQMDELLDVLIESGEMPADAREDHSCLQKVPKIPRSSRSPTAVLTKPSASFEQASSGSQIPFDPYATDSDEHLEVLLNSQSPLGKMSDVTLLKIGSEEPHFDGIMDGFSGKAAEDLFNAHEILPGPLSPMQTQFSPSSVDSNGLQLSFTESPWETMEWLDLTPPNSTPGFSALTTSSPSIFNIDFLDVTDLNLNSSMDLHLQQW

gt253_human CERCAM = gt253_human CERCAM (UniProt Q5T4B2)
vtnc_human VTN = vtnc_human VTN (UniProt P04004)
mare1_human MAPRE1 = mare1_human MAPRE1 (UniProt Q15691)
Chain of mare1_human MAPRE1 (Q15691 whole entry): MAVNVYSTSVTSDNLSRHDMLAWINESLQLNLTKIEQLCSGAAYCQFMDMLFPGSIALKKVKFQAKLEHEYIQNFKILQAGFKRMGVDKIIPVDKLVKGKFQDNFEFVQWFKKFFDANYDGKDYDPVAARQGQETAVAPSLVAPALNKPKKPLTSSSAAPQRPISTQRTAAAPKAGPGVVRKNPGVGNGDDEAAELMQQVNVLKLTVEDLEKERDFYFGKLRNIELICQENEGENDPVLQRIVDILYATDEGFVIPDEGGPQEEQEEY

sdcb1_human SDCBP = sdcb1_human SDCBP (UniProt O00560)
Chain of sdcb1_human SDCBP (O00560 whole entry): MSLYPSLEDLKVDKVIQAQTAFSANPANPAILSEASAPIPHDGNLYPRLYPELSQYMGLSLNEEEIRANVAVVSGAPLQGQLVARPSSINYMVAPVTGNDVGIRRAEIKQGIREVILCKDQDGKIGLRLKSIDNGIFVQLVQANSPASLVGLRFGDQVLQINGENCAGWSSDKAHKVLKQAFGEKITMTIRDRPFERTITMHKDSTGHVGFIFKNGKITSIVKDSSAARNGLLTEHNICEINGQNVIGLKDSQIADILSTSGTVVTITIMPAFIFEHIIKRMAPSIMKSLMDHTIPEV

ut14c_human UTP14C = ut14c_human UTP14C (UniProt Q5TAP6)
Chain of ut14c_human UTP14C (Q5TAP6 whole entry): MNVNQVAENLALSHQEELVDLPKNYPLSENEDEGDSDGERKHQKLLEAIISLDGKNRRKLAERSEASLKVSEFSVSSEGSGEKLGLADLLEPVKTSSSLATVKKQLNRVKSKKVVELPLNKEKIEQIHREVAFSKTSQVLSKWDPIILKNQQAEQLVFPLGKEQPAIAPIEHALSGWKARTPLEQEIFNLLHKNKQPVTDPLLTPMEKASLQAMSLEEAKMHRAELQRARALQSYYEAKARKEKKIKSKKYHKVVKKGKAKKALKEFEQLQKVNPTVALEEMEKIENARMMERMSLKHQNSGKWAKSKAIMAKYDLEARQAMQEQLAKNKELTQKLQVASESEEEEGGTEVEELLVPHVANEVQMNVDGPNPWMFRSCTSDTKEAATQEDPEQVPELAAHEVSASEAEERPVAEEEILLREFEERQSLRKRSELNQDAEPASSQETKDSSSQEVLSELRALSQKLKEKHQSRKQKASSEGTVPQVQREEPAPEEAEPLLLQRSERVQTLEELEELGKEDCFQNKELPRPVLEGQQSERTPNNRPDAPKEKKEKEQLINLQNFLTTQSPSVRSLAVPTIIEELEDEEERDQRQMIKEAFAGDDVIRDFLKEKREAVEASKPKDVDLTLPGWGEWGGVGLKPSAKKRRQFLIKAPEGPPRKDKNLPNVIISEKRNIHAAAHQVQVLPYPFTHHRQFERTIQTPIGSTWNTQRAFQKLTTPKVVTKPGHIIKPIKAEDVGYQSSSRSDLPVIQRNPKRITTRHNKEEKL

prp31_human PRPF31 = prp31_human PRPF31 (UniProt Q8WWY3)
Chain of prp31_human PRPF31 (Q8WWY3 whole entry): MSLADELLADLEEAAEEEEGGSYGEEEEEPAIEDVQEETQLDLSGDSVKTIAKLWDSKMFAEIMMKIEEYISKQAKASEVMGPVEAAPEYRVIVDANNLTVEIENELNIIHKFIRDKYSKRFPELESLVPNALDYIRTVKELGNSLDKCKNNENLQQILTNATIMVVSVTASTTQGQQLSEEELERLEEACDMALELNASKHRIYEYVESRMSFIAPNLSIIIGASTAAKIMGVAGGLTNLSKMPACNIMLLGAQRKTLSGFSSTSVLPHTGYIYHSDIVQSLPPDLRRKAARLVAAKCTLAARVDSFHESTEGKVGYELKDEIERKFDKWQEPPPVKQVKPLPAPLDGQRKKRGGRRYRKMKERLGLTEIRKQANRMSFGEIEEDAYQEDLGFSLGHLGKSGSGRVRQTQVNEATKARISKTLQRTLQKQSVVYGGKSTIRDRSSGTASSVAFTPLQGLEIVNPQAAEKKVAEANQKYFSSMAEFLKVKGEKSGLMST

lmo4_human LMO4 = lmo4_human LMO4 (UniProt P61968)
Chain of lmo4_human LMO4 (P61968 whole entry): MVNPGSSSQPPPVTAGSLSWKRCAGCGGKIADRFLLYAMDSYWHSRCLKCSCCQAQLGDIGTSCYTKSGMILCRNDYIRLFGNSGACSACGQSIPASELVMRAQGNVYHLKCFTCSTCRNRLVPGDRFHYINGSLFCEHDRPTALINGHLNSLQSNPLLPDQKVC

traf1_human TRAF1 = traf1_human TRAF1 (UniProt Q13077)

Chain of fxl18_human FBXL18 (Q96ME1 whole entry): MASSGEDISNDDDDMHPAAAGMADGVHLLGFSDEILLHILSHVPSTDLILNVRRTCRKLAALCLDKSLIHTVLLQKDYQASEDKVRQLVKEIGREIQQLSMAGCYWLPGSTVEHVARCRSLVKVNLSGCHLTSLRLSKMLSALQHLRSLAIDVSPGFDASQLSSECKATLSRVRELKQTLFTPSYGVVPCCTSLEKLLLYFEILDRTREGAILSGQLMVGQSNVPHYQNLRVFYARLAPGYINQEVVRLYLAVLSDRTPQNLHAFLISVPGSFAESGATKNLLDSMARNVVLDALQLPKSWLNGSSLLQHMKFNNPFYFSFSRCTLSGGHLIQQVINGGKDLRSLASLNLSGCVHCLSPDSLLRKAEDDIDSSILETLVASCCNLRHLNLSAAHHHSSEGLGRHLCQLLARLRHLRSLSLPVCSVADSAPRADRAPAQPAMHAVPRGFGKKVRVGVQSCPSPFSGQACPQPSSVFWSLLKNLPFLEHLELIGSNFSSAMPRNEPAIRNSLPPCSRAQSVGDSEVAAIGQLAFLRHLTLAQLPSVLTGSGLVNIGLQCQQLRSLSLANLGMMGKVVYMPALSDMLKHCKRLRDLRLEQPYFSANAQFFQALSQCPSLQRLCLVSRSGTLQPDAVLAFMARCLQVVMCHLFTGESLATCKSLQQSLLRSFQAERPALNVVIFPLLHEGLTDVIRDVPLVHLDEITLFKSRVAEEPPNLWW
Chain of Ectodysplasin-A (Homo sapiens), Q92838 A367T (Q92838 whole entry A367T): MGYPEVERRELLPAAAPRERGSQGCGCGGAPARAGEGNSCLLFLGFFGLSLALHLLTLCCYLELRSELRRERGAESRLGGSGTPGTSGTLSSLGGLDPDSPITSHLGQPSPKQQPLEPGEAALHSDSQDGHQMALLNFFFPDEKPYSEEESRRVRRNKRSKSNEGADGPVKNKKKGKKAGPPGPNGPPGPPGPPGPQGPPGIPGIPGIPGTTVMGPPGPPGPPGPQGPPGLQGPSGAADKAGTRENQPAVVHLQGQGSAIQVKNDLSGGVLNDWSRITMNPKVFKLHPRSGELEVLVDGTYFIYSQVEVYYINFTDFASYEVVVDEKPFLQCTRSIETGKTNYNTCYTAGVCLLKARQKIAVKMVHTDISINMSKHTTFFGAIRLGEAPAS
Chain of Ectodysplasin-A (Homo sapiens), Q92838 R153H (Q92838 whole entry R153H): as the sequence (Q92838 whole entry A367T) above, with R153H, T367A counted along it
Chain of mal_human MAL (P21145 whole entry): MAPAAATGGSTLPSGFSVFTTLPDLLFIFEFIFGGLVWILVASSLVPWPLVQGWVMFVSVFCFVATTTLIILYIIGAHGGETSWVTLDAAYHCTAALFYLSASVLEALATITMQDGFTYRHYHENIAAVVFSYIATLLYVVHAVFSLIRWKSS
Chain of emp3_human EMP3 (P54852 whole entry): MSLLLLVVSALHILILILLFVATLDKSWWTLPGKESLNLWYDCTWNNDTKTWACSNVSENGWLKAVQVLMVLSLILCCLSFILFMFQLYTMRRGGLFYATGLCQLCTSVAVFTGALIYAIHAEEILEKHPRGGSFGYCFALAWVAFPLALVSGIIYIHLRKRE
Chain of vatl_human ATP6V0C (P27449 whole entry): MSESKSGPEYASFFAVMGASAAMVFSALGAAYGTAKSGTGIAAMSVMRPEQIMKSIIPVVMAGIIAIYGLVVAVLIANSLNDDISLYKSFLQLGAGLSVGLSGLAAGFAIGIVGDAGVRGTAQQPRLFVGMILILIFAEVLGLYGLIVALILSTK
Chain of ppla_human PLN (P26678 whole entry): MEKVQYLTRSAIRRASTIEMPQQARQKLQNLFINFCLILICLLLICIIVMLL

- effect of a mutation on the interaction (fxl18_human FBXL18): with no effect
Substance: NEDD4-like E3 ubiquitin-protein ligase WWP2 (Homo sapiens), O00308 R178Q

- effect of a mutation on the interaction (hem1_human ALAS1): with no effect
- effect of a mutation on the interaction (fsd2_human FSD2): with no effect
- effect of a mutation on the interaction (goga2_human GOLGA2): with no effect
Substance: Parafibromin (Homo sapiens) (from UniProt Q6P1J9) R147C

- effect of a mutation on the interaction (cep63_human CEP63): with no effect
Substance: Histone-lysine N-methyltransferase EZH2 (Homo sapiens), Q15910-2 N640K

- effect of a mutation on the interaction (TSC22D4): with no effect
Substance: Nuclear receptor-binding protein (Homo sapiens), Q9UHY1 P432L

- effect of a mutation on the interaction (hem1_human ALAS1): disrupting interaction strength
- effect of a mutation on the interaction (fsd2_human FSD2): disrupting interaction strength
- effect of a mutation on the interaction (goga2_human GOLGA2): disrupting interaction strength
Substance: Parafibromin (Homo sapiens) (from UniProt Q6P1J9) L95P

- effect of a mutation on the interaction (erep1_human ENTREP1): with no effect
- effect of a mutation on the interaction (pdli7_human PDLIM7): with no effect
- effect of a mutation on the interaction (hnrl1_human HNRNPUL1): with no effect
- effect of a mutation on the interaction (fxl18_human FBXL18): with no effect
Substance: NEDD4-like E3 ubiquitin-protein ligase WWP2 (Homo sapiens), O00308 R215W

- effect of a mutation on the interaction (hem1_human ALAS1): with no effect
- effect of a mutation on the interaction (fsd2_human FSD2): with no effect
- effect of a mutation on the interaction (goga2_human GOLGA2): with no effect
Substance: Parafibromin (Homo sapiens) (from UniProt Q6P1J9) R156H

- effect of a mutation on the interaction (erep1_human ENTREP1): with no effect
- effect of a mutation on the interaction (pdli7_human PDLIM7): with no effect
- effect of a mutation on the interaction (hnrl1_human HNRNPUL1): with no effect
- effect of a mutation on the interaction (fxl18_human FBXL18): with no effect
Substance: NEDD4-like E3 ubiquitin-protein ligase WWP2 (Homo sapiens), O00308 H401R

- effect of a mutation on the interaction (TSC22D4): with no effect
Substance: Nuclear receptor-binding protein (Homo sapiens), Q9UHY1 V365I

- effect of a mutation on the interaction (traf1_human TRAF1): with no effect
Substance: Zinc finger protein 502 (Homo sapiens), Q8TBZ5 E243A

- effect of a mutation on the interaction (mare1_human MAPRE1): with no effect
- effect of a mutation on the interaction (sdcb1_human SDCBP): with no effect
- effect of a mutation on the interaction (ut14c_human UTP14C): with no effect
- effect of a mutation on the interaction (prp31_human PRPF31): with no effect
- effect of a mutation on the interaction (lmo4_human LMO4): with no effect
Substance: Myomegalin (Homo sapiens), Q5VU43 I612T

More lines, now with the values behind:

Substance: Ectodysplasin-A (Homo sapiens), Q92838 R153H
- effect of a mutation on the interaction (vatl_human ATP6V0C): with no effect
- effect of a mutation on the interaction (sc22a_human SEC22A): with no effect
- effect of a mutation on the interaction (ppla_human PLN): with no effect
- effect of a mutation on the interaction (mal_human MAL): with no effect
- effect of a mutation on the interaction (emp3_human EMP3): with no effect

Substance: Mannose-1-phosphate guanylyltransferase catalytic subunit beta (Homo sapiens), Q9Y5P6 R158Q
- effect of a mutation on the interaction (txnd5_human TXNDC5): with no effect

Substance: Histone-lysine N-methyltransferase EZH2 (Homo sapiens), Q15910-2 R288Q
- effect of a mutation on the interaction (cep63_human CEP63): with no effect

Substance: Mannose-1-phosphate guanylyltransferase catalytic subunit beta (Homo sapiens), Q9Y5P6 H126D
- effect of a mutation on the interaction (txnd5_human TXNDC5): with no effect

Substance: Zinc finger protein 224 (Homo sapiens), Q9NZL3 K640E
- effect of a mutation on the interaction (mtus2_human MTUS2): with no effect

Substance: Zinc finger protein 224 (Homo sapiens), Q9NZL3 Q447H
- effect of a mutation on the interaction (mtus2_human MTUS2): with no effect

Substance: Golgi-associated PDZ and coiled-coil motif-containing protein (Homo sapiens) (from UniProt Q9HD26) G53E
- effect of a mutation on the interaction (mycd_human MYOCD): disrupting interaction strength
- effect of a mutation on the interaction (gt253_human CERCAM): disrupting interaction strength
- effect of a mutation on the interaction (vtnc_human VTN): disrupting interaction strength

Substance: Myomegalin (Homo sapiens), Q5VU43 E391A
- effect of a mutation on the interaction (mare1_human MAPRE1): with no effect
- effect of a mutation on the interaction (sdcb1_human SDCBP): with no effect
- effect of a mutation on the interaction (ut14c_human UTP14C): with no effect
- effect of a mutation on the interaction (prp31_human PRPF31): with no effect
- effect of a mutation on the interaction (lmo4_human LMO4): with no effect

Substance: Myomegalin (Homo sapiens), Q5VU43 M783I
- effect of a mutation on the interaction (mare1_human MAPRE1): with no effect
- effect of a mutation on the interaction (sdcb1_human SDCBP): with no effect
- effect of a mutation on the interaction (ut14c_human UTP14C): with no effect
- effect of a mutation on the interaction (prp31_human PRPF31): with no effect
- effect of a mutation on the interaction (lmo4_human LMO4): with no effect

Substance: Ectodysplasin-A (Homo sapiens), Q92838 A367T
- effect of a mutation on the interaction (vatl_human ATP6V0C): with no effect
- effect of a mutation on the interaction (sc22a_human SEC22A): with no effect
- effect of a mutation on the interaction (ppla_human PLN): with no effect
- effect of a mutation on the interaction (mal_human MAL): with no effect
- effect of a mutation on the interaction (emp3_human EMP3): with no effect
